Consider one substance from patent publication US6008014.

The target of this assay is GST-tchvs10a1 fusion protein (plasmid pGEX-4T-2-S10A1) (human). The experiment in a line: BIAcore (SPR); GST-tchvs10a1 captured on anti-GST antibody as ligand, GST-SR-BI at 200 nM as analyte.

“GST-SR-BI cytoplasmic domain fusion protein (plasmid pGEX-4T-1-7-5j) (from UniProt Q8WTV0)” had a response (RU) of 220 RU.
